According to US20220289795, “EFFICIENT METHOD FOR PREPARING PPR PROTEIN AND USE OF THE SAME” (EditForce, Inc., published 2022):
Numbering of substitutions follows the chain as printed.

Experiments:
Experiment in all cases: ELONA; RPB-ELISA
NL_v2_PPR13 = molecular target: T1, NL_v2_PPR13 (Artificial Sequence); conditions: tags: N-term luciferase, C-term 6xHis; label: 5'-biotin
T1 chain: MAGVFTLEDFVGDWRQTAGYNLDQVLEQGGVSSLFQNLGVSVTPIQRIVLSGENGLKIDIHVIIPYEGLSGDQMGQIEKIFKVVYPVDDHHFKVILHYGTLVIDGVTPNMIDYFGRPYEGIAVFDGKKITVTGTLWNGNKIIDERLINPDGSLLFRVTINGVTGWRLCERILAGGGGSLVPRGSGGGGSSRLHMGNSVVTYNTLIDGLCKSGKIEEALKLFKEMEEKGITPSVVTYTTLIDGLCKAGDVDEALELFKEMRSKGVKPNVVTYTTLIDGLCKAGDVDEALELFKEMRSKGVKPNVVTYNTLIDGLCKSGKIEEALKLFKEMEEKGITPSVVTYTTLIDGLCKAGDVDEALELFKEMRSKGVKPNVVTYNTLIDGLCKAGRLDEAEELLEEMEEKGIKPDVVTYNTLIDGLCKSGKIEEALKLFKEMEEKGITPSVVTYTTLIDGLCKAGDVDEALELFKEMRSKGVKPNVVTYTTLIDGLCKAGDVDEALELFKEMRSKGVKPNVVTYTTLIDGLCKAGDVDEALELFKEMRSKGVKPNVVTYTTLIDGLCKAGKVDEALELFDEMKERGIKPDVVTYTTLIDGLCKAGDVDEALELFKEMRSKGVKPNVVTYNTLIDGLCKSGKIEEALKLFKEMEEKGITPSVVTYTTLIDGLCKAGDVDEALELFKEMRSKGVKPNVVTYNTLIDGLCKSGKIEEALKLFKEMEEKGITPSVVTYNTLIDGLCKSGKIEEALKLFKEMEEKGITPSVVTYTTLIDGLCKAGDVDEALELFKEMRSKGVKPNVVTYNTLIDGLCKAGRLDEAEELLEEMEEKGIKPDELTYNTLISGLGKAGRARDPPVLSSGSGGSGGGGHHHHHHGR

v3.1_PPR13 = molecular target: T2, v3.1_PPR13 (Artificial Sequence); conditions: tags: luciferase fusion; label: 5'-biotin
T2 chain: T1 chain with D248K, D283K, D353K, D458K, D493K, D528K, D598K, D668K, D773K

v3.1_PPR14 = molecular target: T3, v3.1_PPR14 (Artificial Sequence); conditions: tags: luciferase fusion; label: 5'-biotin
T3 chain: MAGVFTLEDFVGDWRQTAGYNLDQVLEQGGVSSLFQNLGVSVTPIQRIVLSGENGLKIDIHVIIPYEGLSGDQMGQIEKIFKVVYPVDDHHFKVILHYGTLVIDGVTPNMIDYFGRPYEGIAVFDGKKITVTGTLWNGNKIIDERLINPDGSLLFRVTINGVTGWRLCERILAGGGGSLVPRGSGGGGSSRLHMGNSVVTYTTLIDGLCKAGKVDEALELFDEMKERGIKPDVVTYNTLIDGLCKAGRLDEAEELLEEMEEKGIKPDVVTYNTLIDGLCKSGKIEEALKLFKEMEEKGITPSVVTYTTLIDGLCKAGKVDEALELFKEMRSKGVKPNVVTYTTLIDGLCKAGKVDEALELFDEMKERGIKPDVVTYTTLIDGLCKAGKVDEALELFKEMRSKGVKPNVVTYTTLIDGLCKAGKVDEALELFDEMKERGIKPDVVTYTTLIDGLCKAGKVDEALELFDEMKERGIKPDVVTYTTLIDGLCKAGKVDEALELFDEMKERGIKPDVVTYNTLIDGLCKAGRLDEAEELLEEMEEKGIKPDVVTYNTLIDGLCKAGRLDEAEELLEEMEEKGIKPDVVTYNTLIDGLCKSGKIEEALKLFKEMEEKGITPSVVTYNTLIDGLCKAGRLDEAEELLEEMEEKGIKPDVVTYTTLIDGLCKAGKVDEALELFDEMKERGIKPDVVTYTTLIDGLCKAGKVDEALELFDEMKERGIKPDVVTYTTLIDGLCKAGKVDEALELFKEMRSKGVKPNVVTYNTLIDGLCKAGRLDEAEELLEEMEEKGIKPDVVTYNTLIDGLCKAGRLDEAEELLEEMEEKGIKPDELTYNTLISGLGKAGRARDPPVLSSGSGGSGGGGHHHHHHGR

NL_v2_PPR14 = molecular target: T4, NL_v2_PPR14 (Artificial Sequence); conditions: tags: N-term luciferase, C-term 6xHis; label: 5'-biotin
T4 chain: T3 chain with K318D, K388D, K738D

v3.1_PPR15 = molecular target: T5, v3.1_PPR15 (Artificial Sequence); conditions: tags: luciferase fusion; label: 5'-biotin
T5 chain: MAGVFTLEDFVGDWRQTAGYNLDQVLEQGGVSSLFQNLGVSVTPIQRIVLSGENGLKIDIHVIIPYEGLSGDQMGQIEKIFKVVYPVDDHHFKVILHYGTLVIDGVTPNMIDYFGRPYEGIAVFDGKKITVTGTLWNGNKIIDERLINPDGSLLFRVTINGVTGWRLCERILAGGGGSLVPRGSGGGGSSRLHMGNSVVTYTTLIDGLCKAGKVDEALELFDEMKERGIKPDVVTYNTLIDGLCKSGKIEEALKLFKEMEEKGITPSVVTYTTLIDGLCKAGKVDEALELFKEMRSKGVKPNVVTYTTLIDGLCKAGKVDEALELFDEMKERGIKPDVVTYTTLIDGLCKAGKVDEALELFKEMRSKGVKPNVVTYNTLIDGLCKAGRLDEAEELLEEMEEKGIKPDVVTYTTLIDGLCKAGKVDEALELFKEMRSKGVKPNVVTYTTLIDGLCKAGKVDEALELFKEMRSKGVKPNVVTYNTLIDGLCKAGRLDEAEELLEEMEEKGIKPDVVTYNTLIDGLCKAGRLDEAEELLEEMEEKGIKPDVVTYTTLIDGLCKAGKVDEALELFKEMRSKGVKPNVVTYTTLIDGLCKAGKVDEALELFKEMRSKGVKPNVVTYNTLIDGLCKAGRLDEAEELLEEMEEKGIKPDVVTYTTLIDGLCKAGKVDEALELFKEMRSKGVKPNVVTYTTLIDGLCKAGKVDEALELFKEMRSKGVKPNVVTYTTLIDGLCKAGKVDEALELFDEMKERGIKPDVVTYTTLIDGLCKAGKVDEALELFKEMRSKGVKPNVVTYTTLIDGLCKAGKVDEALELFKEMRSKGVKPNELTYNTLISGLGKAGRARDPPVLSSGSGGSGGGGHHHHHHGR

NL_v2_PPR15 = molecular target: T6, NL_v2_PPR15 (Artificial Sequence); conditions: tags: N-term luciferase, C-term 6xHis; label: 5'-biotin
T6 chain: T5 chain with K283D, K353D, K423D, K458D, K563D, K598D, K668D, K703D, K773D, K808D

Binder: GACAUGCCAACAUCAAAGACACCAUGACUG (ssRNA) [RNA_13]
- binding signal (NL_v2_PPR13): 2.3e+06 luminescence
- binding signal (v3.1_PPR13): 4e+07 luminescence

Binder: GACAUGCGUCAGAGGGUUCUGGAUUGACUG (ssRNA) [RNA_14]
- binding signal (v3.1_PPR14): 2.5e+07 luminescence
- binding signal (NL_v2_PPR14): 2.5e+07 luminescence

Binder: GACAUGCGCAGAUAAUUAAUAAGAAGACUG (ssRNA) [RNA_15]
- binding signal (v3.1_PPR15): 3.2e+07 luminescence
- binding signal (NL_v2_PPR15): 1.3e+07 luminescence
